Experiment [1] deals with C5aR extracellular N-terminus polypeptide (UniProt P21730). The experiment can be described thus: ELISA, polypeptide coated at 1.0 µg/mL.
The target of the next experiment is C5aR polypeptide-03 (UniProt P21730). Nature of the experiment: ELISA, polypeptide coated at 1.0 µg/mL. A general note: An ELISA detects its analyte on a solid surface through an enzyme-linked reagent.
A further experiment has as its target C5aR polypeptide-04 (UniProt P21730). The experiment can be described thus: ELISA, polypeptide coated at 1.0 µg/mL.
Another experiment has as its target C5aR polypeptide-05 (UniProt P21730). Nature of the experiment: ELISA, polypeptide coated at 1.0 µg/mL.
Experiment [2] deals with human C5aR (human) (UniProt P21730). Nature of the experiment: FACS, CHOK1-hC5aR cells, 66.6000 nM antibody. A general note: Flow cytometry measures light scatter and fluorescence of single cells or particles in a stream.
The target is the same in experiment [3]. The experiment can be described thus: FACS, CHOK1-hC5aR cells, 0.0067 nM antibody.
Experiment [4] has the same target. Nature of the experiment: FACS, CHOK1-hC5aR cells, 0.6660 nM antibody.
For experiment [5] the target is unchanged. The experiment can be described thus: FACS, CHOK1-hC5aR cells, 6.6600 nM antibody.
The target is the same in experiment [6]. The experiment can be described thus: FACS, CHOK1-hC5aR cells, 0.0666 nM antibody.
Experiment [7] shares this target. Nature of the experiment: cell-based or functional assay.
For experiment [8] the target is unchanged. Nature of the experiment: FACS, CHOK1-hC5aR cells, 666.0000 nM antibody.
Experiment [9] has the same target. Nature of the experiment: FACS, CHOK1-hC5aR cells, 0.0000 nM antibody (background).
Experiment [10] shares this target. Nature of the experiment: FACS, CHOK1-hC5aR cells, 0.0007 nM antibody.

“And” between values parts separate entries of the source, which are not always exact repeats. Identical values can stand only once.

The text below walks through data of patent publication US20210070875A1.

Sequence of human C5aR (human) (P21730 other isoform, or with tags, fused parts or gaps): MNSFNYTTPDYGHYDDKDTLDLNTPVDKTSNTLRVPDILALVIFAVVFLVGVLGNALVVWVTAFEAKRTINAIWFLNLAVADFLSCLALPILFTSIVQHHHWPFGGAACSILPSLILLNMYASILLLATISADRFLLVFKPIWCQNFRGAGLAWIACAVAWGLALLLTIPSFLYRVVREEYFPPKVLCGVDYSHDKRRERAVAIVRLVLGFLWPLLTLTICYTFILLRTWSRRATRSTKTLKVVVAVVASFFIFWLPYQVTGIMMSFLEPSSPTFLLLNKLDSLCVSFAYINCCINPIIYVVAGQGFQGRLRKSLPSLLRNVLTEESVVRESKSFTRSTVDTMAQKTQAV

Regarding IgG control (human IgG) (antibody), the OD450 nm in [1] came out at 0.07 OD450 nm; with C5aR polypeptide-03, 0.07 OD450 nm; with C5aR polypeptide-04, 0.06 OD450 nm; with C5aR polypeptide-05, 0.07 OD450 nm.

Regarding mIgG control (murine IgG) (antibody), the MFI with human C5aR (human) [2] was 3.18 MFI and 2.14 MFI. Moreover, in the experiment with human C5aR (human) [3], the MFI is 2.79 MFI and 2.01 MFI. In addition, in the experiment with human C5aR (human) [4], the MFI was 2.96 MFI and 1.99 MFI. Further, the MFI in the experiment with human C5aR (human) [5] is 2.88 MFI and 2.01 MFI. In addition, in the experiment with human C5aR (human) [6], the MFI is 2.81 MFI and 2 MFI. In the experiment with human C5aR (human) [7], this substance gave a C5a-induced human neutrophil migration, Celltiter-Glo fluorescence intensity value, Parallel sample 1 (fluorescence intensity) of 5170; a C5a-induced human neutrophil migration, Celltiter-Glo fluorescence intensity value, Parallel sample 2 (fluorescence intensity) of 5000; a C5a-induced human neutrophil migration, Celltiter-Glo fluorescence intensity value, Parallel sample 3 (fluorescence intensity) of 2580; a C5a-induced human neutrophil migration, Celltiter-Glo fluorescence intensity value, Parallel sample 4 (fluorescence intensity) of 2640. Besides, in the experiment with human C5aR (human) [7], the C5a-mediated calcium flow signal, FLIPR, antibody 0.0 µg/mL is 1870 MFI and 1690 MFI; the C5a-mediated calcium flow signal, FLIPR, antibody 0.01 µg/mL is 2110 MFI and 1890 MFI; the C5a-mediated calcium flow signal, FLIPR, antibody 0.1 µg/mL was 2080 MFI and 1740 MFI; the C5a-mediated calcium flow signal, FLIPR, antibody 0.4 µg/mL is 1920 MFI and 1610 MFI. Also, in the experiment with human C5aR (human) [7], the C5a-mediated calcium flow signal, FLIPR, antibody 1.1 µg/mL was 1830 MFI and 1790 MFI; the C5a-mediated calcium flow signal, FLIPR, antibody 3.3 µg/mL is 1870 MFI and 1840 MFI; the C5a-mediated calcium flow signal, FLIPR, antibody 10.0 µg/mL was 1730 MFI and 1850 MFI; the C5a-mediated calcium flow signal, FLIPR, antibody 30.0 µg/mL stood at 1590 MFI. Moreover, the MFI with human C5aR (human) [8] is 3.22 MFI and 2.21 MFI. Also, in the experiment with human C5aR (human) [9], the MFI was 2.69 MFI and 1.99 MFI. In the experiment with human C5aR (human) [10], the MFI is 2.78 MFI and 2.03 MFI.
